This data set relates to TRMT10C (native, untagged, in complex);SDR5C1 (Homo sapiens;Homo sapiens). The data set can be described thus: EMSA. The settings on record: concentration refers to TRMT10C content; EMSA: 1 nM 5'-labelled pre-tRNA, 10 nM-1.2 uM protein, methylation/processing buffer (composition not in material) + 100 mM sucrose, 30 min at room …. Background: A gel shift assay detects complexes by their altered migration in electrophoresis.

Usually Kd stands for the equilibrium constant for the complex coming apart. As for (mt)pre-tRNAHis, the Kd was found to be 143 nM. In the case of (mt)pre-tRNAIle, the Kd was 88 nM.

These data come from PMC3526285.
